Nine molecules from article PMC6318249, “DNA Binding and Phosphorylation Regulate the Core Structure of the NF-κB p50 Transcription Factor” (Journal of the American Society for Mass Spectrometry, 2018) can be followed below.

Data set [1] concerns the target Murine NF-κB p50 (39-364) S248D (murine) (UniProt P25799). As to the kind of experiment: native MS; native IM-MS of p50 (39-364) WT and Ser to Asp variants, no DNA; 100 mM NH4OAc, typically 5 μM; percentage peak areas of monomer and dimer by multi-Gaussian fitting.
Data set [2] addresses Murine NF-κB p50 (39-364) wild-type (murine) (UniProt P25799). The description is as above.
Data set [3] concerns the target p50 (35-381, Enzo Scientific) 35-381 (UniProt P19838). Nature of the data set: native nESI-MS, monomer:dimer, with κB DNA. The conditions noted are these: reference: non-phosphorylated p50 plus DNA; sites S328,S337.
Data set [4] has the same target. As to the kind of experiment: native nESI-MS, monomer:dimer ratio, no DNA. To be noted: reference: p50 before phosphorylation; sites S328,S337.
Data set [5] deals with Murine NF-κB p50 (39-364) S242D (murine) (UniProt P25799). Nature of the data set: native MS; native IM-MS of p50 (39-364) WT and Ser to Asp variants, no DNA; 100 mM NH4OAc, typically 5 μM; percentage peak areas of monomer and dimer by multi-Gaussian fitting.
Data set [6] addresses Murine NF-κB p50 (39-364) S337D (murine) (UniProt P25799). Nature of the data set: SEC; size exclusion chromatography of p50 (39-364); monomer measured by protein staining and densitometry. Background: Size exclusion chromatography separates by hydrodynamic size, large species first.
For data set [7] the target is unchanged. As to the kind of experiment: native MS; native IM-MS of p50 (39-364) WT and Ser to Asp variants, no DNA; 100 mM NH4OAc, typically 5 μM; percentage peak areas of monomer and dimer by multi-Gaussian fitting.
Data set [8] concerns the target Murine NF-κB p50 (39-364) S65D (murine) (UniProt P25799). The description is as above.
Data set [9] deals with the molecule itself. Nature of the data set: native MS; nano-ESI native MS of p50 (35-381) before and after in vitro phosphorylation with PKAc or Chk1; 100 mM NH4OAc, typically 5 μM; without and with the κB DNA oligomer; monomer and dimer charge states compared.
Data set [10] has as its target p50 S248D (Mus musculus, UniProt P25799 39-364, S246D). As to the kind of experiment: native MS titration; KD: 3 uM p50 with 0.2-6 uM DNA in 300 mM NH4OAc, 5 min, room temperature, 10 uL, pH not stated; native nESI-(IM-)MS. The conditions noted are these: protein: recombinant; tags: His6-MBP removed by 3C protease; chain copies: 2; blunt; strand is self-complementary.

In data set [11] the target is p50 S337D (Mus musculus, UniProt P25799 39-364, S335D). Described as above. To be noted: protein: recombinant; tags: His6-MBP removed by 3C protease; chain copies: 2; blunt; strand is self-complementary.
p50 S337D, sequence (P25799 39-364 S335D): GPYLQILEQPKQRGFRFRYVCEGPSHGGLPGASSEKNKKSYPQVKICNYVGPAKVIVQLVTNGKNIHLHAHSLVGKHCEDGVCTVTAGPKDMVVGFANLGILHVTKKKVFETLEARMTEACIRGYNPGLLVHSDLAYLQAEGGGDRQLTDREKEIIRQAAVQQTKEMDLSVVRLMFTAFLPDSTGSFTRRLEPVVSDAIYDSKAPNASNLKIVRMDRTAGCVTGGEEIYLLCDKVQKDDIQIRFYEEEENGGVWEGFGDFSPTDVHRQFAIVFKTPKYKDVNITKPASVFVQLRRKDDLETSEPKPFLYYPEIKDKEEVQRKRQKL
In data set [12] the target is p50 S242D (Mus musculus, UniProt P25799 39-364, S240D). Described as above. To be noted: protein: recombinant; tags: His6-MBP removed by 3C protease; chain copies: 2; blunt; strand is self-complementary.
p50 S242D, sequence (P25799 39-364 S240D): as the sequence (P25799 39-364 S335D) above, with S202D, D297S counted along it
Data set [13] has as its target p50 WT (Mus musculus, UniProt P25799 39-364). The data set is described as above. To be noted: protein: recombinant; tags: His6-MBP removed by 3C protease; chain copies: 2; blunt; strand is self-complementary.
Data set [14] has as its target p50 S65D (Mus musculus, UniProt P25799 39-364, S63D). Described as above. To be noted: protein: recombinant; tags: His6-MBP removed by 3C protease; chain copies: 2; blunt; strand is self-complementary.

p50 S65D, sequence (P25799 39-364 S63D): as the sequence (P25799 39-364 S335D) above, with S25D, D297S counted along it
p50 WT, sequence (P25799 39-364): as the sequence (P25799 39-364 S335D) above, with D297S counted along it
p50 S248D, sequence (P25799 39-364 S246D): as the sequence (P25799 39-364 S335D) above, with S208D, D297S counted along it

Broadly, the stoichiometry N is the number of molecules, sites or subunits per partner or assembly. Take “Murine NF-κB p50 (39-364) S248D (from UniProt P25799 39-364) (domain or fragment)”: in data set [1], the percentage peak area of dimer is 94.2%, the percentage peak area of monomer was 5.8% and the stoichiometry N amounted to 2.

In data set [2], “Murine NF-κB p50 (39-364) wild-type (from UniProt P25799 39-364) (domain or fragment)” showed a percentage peak area of dimer of 89.5%, a percentage peak area of monomer of 10.5% and a stoichiometry N of 2.

Take “p50 (35-381, Enzo Scientific) 35-381 (from UniProt P19838) PKAc-phosphorylated p50 plus DNA”: in data set [3], the “binding against the reference” value is listed as “same”.

With “p50 (35-381, Enzo Scientific) 35-381 (from UniProt P19838) PKAc-phosphorylated p50”, the “binding against the reference” value in data set [4] is recorded as “weaker”.

“Murine NF-κB p50 (39-364) S242D (from UniProt P25799 39-364) (domain or fragment)”: in data set [5], the percentage peak area of dimer came to 87.6%, the percentage peak area of monomer is 12.4% and the stoichiometry N was found to be 2.

Molecule “Murine NF-κB p50 (39-364) S337D (from UniProt P25799 39-364) (domain or fragment)” came in with a fold increase in monomer relative to WT p50 in data set [6] of 5 fold. In data set [7], this molecule yielded a percentage peak area of dimer of 74.8%, a percentage peak area of monomer of 25.2% and a stoichiometry N of 2.

Regarding “Murine NF-κB p50 (39-364) S65D (from UniProt P25799 39-364) (domain or fragment)”, in [8], the percentage peak area of dimer turned out to be 90.6%, the percentage peak area of monomer was 9.4% and the stoichiometry N was 2.

B1: NF-κB p50 (35-381), non-phosphorylated (domain or fragment, UniProt P19838 35-381, looked up)
chain: MALPTDGPYLQILEQPKQRGFRFRYVCEGPSHGGLPGASSEKNKKSYPQVKICNYVGPAKVIVQLVTNGKNIHLHAHSLVGKHCEDGICTVTAGPKDMVVGFANLGILHVTKKKVFETLEARMTEACIRGYNPGLLVHPDLAYLQAEGGGDRQLGDREKELIRQAALQQTKEMDLSVVRLMFTAFLPDSTGSFTRRLEPVVSDAIYDSKAPNASNLKIVRMDRTAGCVTGGEEIYLLCDKVQKDDIQIRFYEEEENGGVWEGFGDFSPTDVHRQFAIVFKTPKYKDINITKPASVFVQLRRKSDLETSEPKPFLYYPEIKDKEEVQRKRQKLMPNFSDSFGGGSGAG
notes: NF-κB p50, the proteolytic product of p105 (NF-κB1), residues 35-381; also called recombinant p50 (35-381); source: bought: Enzo Scientific
As to B1, in data set [9], the “stoichiometry N” value is 2.

B2: kB DNA oligomer (KD determination) (dsDNA)
DNA 1: CCCCCGGGGGCCCCCGGGGG
DNA 2: CCCCCGGGGGCCCCCGGGGG
For orientation: Kd means the equilibrium constant for the complex coming apart. Consider B2, for which the Kd in data set [10] was 112 ± 11 nM; in [11], 111 ± 15 nM; in [12], 424 ± 78 nM; in data set [13], 37 ± 7 nM; in data set [14], 140 ± 16 nM.
